# Target: T1, Aβ42-GFP (Homo sapiens, UniProt P05067)
# T1 construct: a chimeric fusion of the human Aβ(1-42) peptide (Aβ42) with GFP; expressed in transfected cells; host or cells: E. coli BL21(DE3)
# Test: High-throughput sequencing of pSICLOPPS vectors isolated after bacterial sorting for enhanced Aβ42-GFP fluorescence
# Conditions: Table 2
# Procedure, shortened: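 E. coli BL21(DE3) expressing Aβ42-GFP from the T7 promoter was co-transformed with cyclic peptide libraries (0.002% L-arabinose, 0.1 mM IPTG at OD600 ~0.5, 37° C). High-fluorescence cells were sorted over repeated rounds. Plasmid peptide-encoding regions were then sequenced by Ion Torrent, discarding sequences with stop codons.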
Substance,Reads/Total SASPT-like reads (%),Reads/Total pentapeptide reads (%),Reads/Total peptide reads (%)
cyclo-SHSPT [AβC5-387],0.337%,0.002%,0.002%
cyclo-SICPT [AβC5-216],1.957%,0.013%,0.011%
cyclo-SITPT [AβC5-380],0.356%,0.002%,0.002%

# Same assay, conditions: Table 2; after second round of sorting
row,Substance,Number of reads
1,cyclo-SHSPT [AβC5-387],89
2,cyclo-SICPT [AβC5-216],516
3,cyclo-SITPT [AβC5-380],94

# Same assay, conditions: Table 3, cyclo-TXXR tetrapeptides
row,Substance,Normalized read number (%)
1,cyclo-TDQR (cyclic) [AβC4B-9],2.09%
2,cyclo-TLGR (cyclic) [AβC4B-86],0.1697%
3,cyclo-TLIR (cyclic) [AβC4B-41],0.775%
4,cyclo-TLWR (cyclic) [AβC4B-80],0.2568%
5,cyclo-TRGR [AβC4-34],0.3047%
6,cyclo-TRRR (cyclic) [AβC4-41],0.2467%
7,cyclo-TTCR (cyclic) [AβC4-9],1.248%
8,cyclo-TTGR [AβC4-35],0.295%

# Same assay, conditions: Table 4
Substance,Reads/Total hexapeptide reads (%),Reads/Total peptide reads (%)
TCSWFD [AβC6-27],0.138%,0.014%
TIFWFD [AβC6-50],0.050%,0.005%
TKEYFD [AβC6-21],0.272%,0.027%
TLCWLN [AβC6-32],0.101%,0.010%
TLDFFD [AβC6-63],0.025%,0.003%
TLEFFD [AβC6-4],5.978%,0.597%
TLEYFM [AβC6-28],0.123%,0.012%
TLEYLW [AβC6-49],0.051%,0.005%
TLGWLD [AβC6-42],0.068%,0.007%
TLHWFE [AβC6-26],0.143%,0.014%
TLKWLN [AβC6-10],2.434%,0.243%
TLLIRW [AβC6-8],2.902%,0.290%
TLSVFD [AβC6-57],0.039%,0.004%
TLSWFN [AβC6-59],0.031%,0.003%
TLSWYD [AβC6-47],0.053%,0.005%
TLWVFD [AβC6-37],0.078%,0.008%
TPALFD [AβC6-68],0.022%,0.002%

Substance,Reads/Total hexapeptide reads (%),Reads/Total peptide reads (%)
TPALVD [AβC6-53],0.046%,0.005%
TPARFD [AβC6-78],0.012%,0.001%
TPAWFD [AβC6-2],24.555%,2.453%
TPAWLD [AβC6-79],0.012%,0.001%
TPAWSD [AβC6-69],0.019%,0.002%
TPCWFD [AβC6-46],0.056%,0.006%
TPGLVD [AβC6-58],0.031%,0.003%
TPGWFD [AβC6-55],0.040%,0.004%
TPIVFD [AβC6-36],0.085%,0.008%
TPLWFN [AβC6-40],0.070%,0.007%
TPPWFD [AβC6-44],0.064%,0.006%
TPSWFD [AβC6-65],0.023%,0.002%
TPVLVD [AβC6-48],0.052%,0.005%
TPVWFD [AβC6-1],29.151%,2.912%
TPVWLD [AβC6-80],0.012%,0.001%
TSVEYE [AβC6-41],0.068%,0.007%
TVTWFD [AβC6-6],3.778%,0.377%

# Same assay, conditions: Table 4, hexapeptides; after second round of sorting
row,Substance,Number of reads
1,TCSWFD [AβC6-27],623
2,TIFWFD [AβC6-50],227
3,TKEYFD [AβC6-21],"1,231"
4,TLCWLN [AβC6-32],455
5,TLDFFD [AβC6-63],114
6,TLEFFD [AβC6-4],"27,057"
7,TLEYFM [AβC6-28],556
8,TLEYLW [AβC6-49],233
9,TLGWLD [AβC6-42],307
10,TLHWFE [AβC6-26],647
11,TLKWLN [AβC6-10],"11,016"
12,TLLIRW [AβC6-8],"13,135"
13,TLSVFD [AβC6-57],176
14,TLSWFN [AβC6-59],141
15,TLSWYD [AβC6-47],239
16,TLWVFD [AβC6-37],355
17,TPALFD [AβC6-68],101

row,Substance,Number of reads
1,TPALVD [AβC6-53],208
2,TPARFD [AβC6-78],55
3,TPAWFD [AβC6-2],"111,132"
4,TPAWLD [AβC6-79],55
5,TPAWSD [AβC6-69],86
6,TPCWFD [AβC6-46],252
7,TPGLVD [AβC6-58],142
8,TPGWFD [AβC6-55],180
9,TPIVFD [AβC6-36],384
10,TPLWFN [AβC6-40],316
11,TPPWFD [AβC6-44],289
12,TPSWFD [AβC6-65],105
13,TPVLVD [AβC6-48],236
14,TPVWFD [AβC6-1],"131,935"
15,TPVWLD [AβC6-80],55
16,TSVEYE [AβC6-41],307
17,TVTWFD [AβC6-6],"17,100"

# Same assay, conditions: after the second round of bacterial sorting for enhanced Aβ42-GFP fluorescence; relative to total TXXXR reads
row,Substance,Reads/Total TXXXR reads (%)
1,AβC5-469 (TTIGR; cyclic pentapeptide),0.003%
2,AβC5-472 (TMYAR; cyclic pentapeptide),0.003%
3,AβC5-473 (THVAR; cyclic pentapeptide),0.003%
4,AβC5-474 (TTWPR; cyclic pentapeptide),0.003%
5,AβC5-475 (TTGDR; cyclic pentapeptide),0.003%
6,AβC5-479 (TTTVR; cyclic pentapeptide),0.003%
7,AβC5-481 (TVFGR; cyclic pentapeptide),0.003%
8,AβC5-483 (TRVGR; cyclic pentapeptide),0.003%

# Same assay, conditions: after the second round of bacterial sorting for enhanced Aβ42-GFP fluorescence; relative to total pentapeptide reads
row,Substance,Reads/Total pentapeptide reads (%)
1,AβC5-469 (TTIGR; cyclic pentapeptide),0.001%
2,AβC5-472 (TMYAR; cyclic pentapeptide),0.001%
3,AβC5-473 (THVAR; cyclic pentapeptide),0.001%
4,AβC5-474 (TTWPR; cyclic pentapeptide),0.001%
5,AβC5-475 (TTGDR; cyclic pentapeptide),0.001%
6,AβC5-479 (TTTVR; cyclic pentapeptide),0.001%
7,AβC5-481 (TVFGR; cyclic pentapeptide),0.001%
8,AβC5-483 (TRVGR; cyclic pentapeptide),0.001%

# Same assay, conditions: after the second round of bacterial sorting for enhanced Aβ42-GFP fluorescence; relative to total peptide reads
row,Substance,Reads/Total peptide reads (%)
1,AβC5-469 (TTIGR; cyclic pentapeptide),0.001%
2,AβC5-472 (TMYAR; cyclic pentapeptide),0.001%
3,AβC5-473 (THVAR; cyclic pentapeptide),0.001%
4,AβC5-474 (TTWPR; cyclic pentapeptide),0.001%
5,AβC5-475 (TTGDR; cyclic pentapeptide),0.001%
6,AβC5-479 (TTTVR; cyclic pentapeptide),0.001%
7,AβC5-481 (TVFGR; cyclic pentapeptide),0.001%
8,AβC5-483 (TRVGR; cyclic pentapeptide),0.001%

# Same assay, conditions: pSICLOPPS-NuX1X2X3-X5 vectors after the second round of bacterial sorting for enhanced Aβ42-GFP fluorescence
row,Substance,Number of reads
1,AβC5-469 (TTIGR; cyclic pentapeptide),53
2,AβC5-472 (TMYAR; cyclic pentapeptide),51
3,AβC5-473 (THVAR; cyclic pentapeptide),51
4,AβC5-474 (TTWPR; cyclic pentapeptide),51
5,AβC5-475 (TTGDR; cyclic pentapeptide),51
6,AβC5-479 (TTTVR; cyclic pentapeptide),50
7,AβC5-481 (TVFGR; cyclic pentapeptide),50
8,AβC5-483 (TRVGR; cyclic pentapeptide),50
